Assays:
Conditions in all cases: remark: other sources report otherwise
[1] = biological target: recombinant soluble homotrimeric HA of A/Solomon Islands/3/06 (H1N1) (Influenza A virus A/Solomon Islands/3/2006(H1N1)); test: HA microarray, BCC supernatant
[2] = biological target: recombinant soluble homotrimeric HA of A/Netherlands/219/03 (H7N7) (Influenza A virus A/Netherlands/219/03(H7N7)); test: HA microarray, BCC supernatant
[3] = biological target: recombinant soluble homotrimeric HA of A/Anhui/1/05 (H5N1) (Influenza A virus A/Anhui/1/2005(H5N1)); test: HA microarray, BCC supernatant
[4] = biological target: recombinant soluble homotrimeric HA of A/Vietnam/1203/04 (H5N1) (Influenza A virus A/VietNam/1203/2004(H5N1)); test: HA microarray, BCC supernatant
[5] = biological target: recombinant soluble homotrimeric HA of A/California/4/09 (H1N1) (Influenza A virus A/California/04/2009(H1N1)); test: HA microarray, BCC supernatant
[6] = biological target: recombinant soluble homotrimeric HA of A/Hong Kong/2108/03 (H9N2) (Influenza A virus A/HK/2108/2003(H9N2)); test: HA microarray, BCC supernatant
[7] = biological target: recombinant soluble homotrimeric HA of A/chicken/Vietnam/NCVD-016/08 (H5N1) (Influenza A virus A/chicken/Vietnam/NCVD-016/2008(H5N1)); test: HA microarray, BCC supernatant
[8] = biological target: recombinant soluble homotrimeric HA of A/swine/Ontario/01911-2/99 (H4N6) (Influenza A virus A/Swine/Ontario/01911-2/99 (H4N6)); test: HA microarray, BCC supernatant
[9] = biological target: recombinant soluble homotrimeric HA of A/Wisconsin/67/05 (H3N2) (Influenza A virus A/Wisconsin/67/2005(H3N2)); test: HA microarray, BCC supernatant
[10] = biological target: recombinant soluble homotrimeric HA of A/Indonesia/5/05 (H5N1) (Influenza A virus A/Indonesia/5/2005(H5N1)); test: HA microarray, BCC supernatant
[11] = biological target: recombinant soluble homotrimeric HA of A/Japan/305/57 (H2N2) (Influenza A virus A/Japan/305/1957(H2N2)); test: HA microarray, BCC supernatant
[12] = biological target: recombinant soluble homotrimeric HA of A/duck/Yangzhou/02/05 (H8N4) (Influenza A virus A/duck/Yangzhou/02/2005(H8N4)); test: HA microarray, BCC supernatant
[13] = biological target: recombinant soluble homotrimeric HA of A/northern shoveler/California/HKWF115/07 (H6) (Influenza A virus A/northern shoveler/California/HKWF115/2007(H6N1)); test: HA microarray, BCC supernatant
[14] = biological target: recombinant homotrimeric HA A/Indonesia/5/05 H5N1 (Influenza A virus A/Indonesia/5/2005(H5N1)); test: protein microarray, purified IgG, trimeric HA
[15] = biological target: recombinant homotrimeric HA A/Hong Kong/156/97 H5N1 (Influenza A virus A/Hong Kong/156/97 (H5N1)); test: protein microarray, purified IgG, trimeric HA
[16] = biological target: recombinant homotrimeric HA A/Hong Kong/2108/03 H9N2 (Influenza A virus A/HK/2108/2003(H9N2)); test: protein microarray, purified IgG, trimeric HA
[17] = biological target: recombinant homotrimeric HA A/Japan/305/57 H2N2 (Influenza A virus A/Japan/305/1957(H2N2)); test: protein microarray, purified IgG, trimeric HA
[18] = biological target: recombinant homotrimeric HA A/South Carolina/1/18 H1N1 (Influenza A virus A/South Carolina/1/18 (H1N1)); test: protein microarray, purified IgG, trimeric HA
[19] = biological target: recombinant homotrimeric HA A/Wisconsin/67/05 H3N2 (Influenza A virus A/Wisconsin/67/2005(H3N2)); test: protein microarray, purified IgG, trimeric HA
[20] = biological target: recombinant homotrimeric HA A/chicken/Vietnam/NCVD-016/08 H5N1 (Influenza A virus A/chicken/Vietnam/NCVD-016/2008(H5N1)); test: protein microarray, purified IgG, trimeric HA
[21] = biological target: recombinant homotrimeric HA A/California/4/09 H1N1 (Influenza A virus A/California/04/2009(H1N1)); test: protein microarray, purified IgG, trimeric HA
[22] = biological target: recombinant homotrimeric HA A/Netherlands/219/03 H7N7 (Influenza A virus A/Netherlands/219/03(H7N7)); test: protein microarray, purified IgG, trimeric HA
[23] = biological target: recombinant homotrimeric HA A/northern shoveler/California/HKWF115/07 H6N4 (Influenza A virus A/northern shoveler/California/HKWF115/2007(H6N1)); test: protein microarray, purified IgG, trimeric HA
[24] = biological target: recombinant homotrimeric HA A/Anhui/1/05 H5N1 (Influenza A virus A/Anhui/1/2005(H5N1)); test: protein microarray, purified IgG, trimeric HA
[25] = biological target: recombinant homotrimeric HA A/Vietnam/1203/04 H5N1 (Influenza A virus A/VietNam/1203/2004(H5N1)); test: protein microarray, purified IgG, trimeric HA
[26] = biological target: recombinant homotrimeric HA A/Solomon Islands/3/06 H1N1 (Influenza A virus A/Solomon Islands/3/2006(H1N1)); test: protein microarray, purified IgG, trimeric HA
[27] = biological target: recombinant homotrimeric HA A/Egypt/3300-NAMRU3/08 H5N1 (Influenza A virus A/Egypt/3300-NAMRU3/2008(H5N1)); test: protein microarray, purified IgG, trimeric HA

B1: TCN-540 (5060_F05) (antibody, V domains shown)
VH: QVQLVQSGGGVVQPGRSLRLSCAASGFTFSSYAMHWVRQAPGKGLEWVAIISYDGNDQYYTDSVKGRFTISRDSSKVYLQMHRLRPEDTAVYYCAKEFETSGYFHGSFDYWGQGILVTVSS
VL: QSALTQPASVSGSPGQSITISCTGTSSDVGGYNYVSWYQQHPGKAPKLLIYEVTNWPSGVSNRFSGSKSGNTASLTISGLQAEDEADYYCSSYAGSSTWVFGGGTRVTVL
Trimeric HA Binding: RLU [1]: 64 RLU
Trimeric HA Binding: RLU [2]: 381 RLU
Trimeric HA Binding: RLU [3]: 25 RLU
Trimeric HA Binding: RLU [4]: 63 RLU
Trimeric HA Binding: RLU [5]: 57 RLU
Trimeric HA Binding: RLU [6]: 22 RLU
Trimeric HA Binding: RLU [7]: 70 RLU
Trimeric HA Binding: RLU [8]: 178 RLU
Trimeric HA Binding: RLU [9]: 728 RLU
Trimeric HA Binding: RLU [10]: 31 RLU
Trimeric HA Binding: RLU [11]: 2970 RLU
Trimeric HA Binding: RLU [12]: 117 RLU
Trimeric HA Binding: RLU [13]: 131 RLU
Trimeric HA Binding: RLU [14]: 139 RLU
Trimeric HA Binding: RLU [15]: 465 RLU
Trimeric HA Binding: RLU [16]: 164 RLU
Trimeric HA Binding: RLU [17]: 29000 RLU
Trimeric HA Binding: RLU [18]: 139 RLU
Trimeric HA Binding: RLU [19]: 6900 RLU
Trimeric HA Binding: RLU [20]: 338 RLU
Trimeric HA Binding: RLU [21]: 266 RLU
Trimeric HA Binding: RLU [22]: 191 RLU
Trimeric HA Binding: RLU [23]: 76 RLU
Trimeric HA Binding: RLU [24]: 769 RLU
Trimeric HA Binding: RLU [25]: 830 RLU
Trimeric HA Binding: RLU [26]: 9360 RLU
Trimeric HA Binding: RLU [27]: 860 RLU

B2: TCN-528 (5087_P17) (antibody, V domains shown)
VH: QVQLVQSGSEVKKPGASVKVSCKASGYTFTNYDINWIRQAPGQGLEWMGWINPNSGTTGSAQRFQGRVTITVDTSITTVYMELSSLRSDDTAIYYCARGRELLRLQHFLTDSQSERRDCFDPWGQGTLVTVSS
VL: DIQMTQSPSSLSASVGDRVTITCRANQDIGIYLNWYQQNPGKVPKLLLHGASSLQGGVPSRFSASGSGTDFTLTIHSLQPEDLATYYCQQSRRLPYTFGQGTRVELK
Trimeric HA Binding: RLU [1]: 44800 RLU
Trimeric HA Binding: RLU [2]: 49300 RLU
Trimeric HA Binding: RLU [3]: 49800 RLU
Trimeric HA Binding: RLU [4]: 45600 RLU
Trimeric HA Binding: RLU [5]: 48800 RLU
Trimeric HA Binding: RLU [6]: 42000 RLU
Trimeric HA Binding: RLU [7]: 38200 RLU
Trimeric HA Binding: RLU [8]: 47500 RLU
Trimeric HA Binding: RLU [9]: 48800 RLU
Trimeric HA Binding: RLU [10]: 42800 RLU
Trimeric HA Binding: RLU [11]: 46400 RLU
Trimeric HA Binding: RLU [12]: 38400 RLU
Trimeric HA Binding: RLU [13]: 46800 RLU
Trimeric HA Binding: RLU [14]: 27000 RLU
Trimeric HA Binding: RLU [15]: 25700 RLU
Trimeric HA Binding: RLU [16]: 23600 RLU
Trimeric HA Binding: RLU [17]: 30100 RLU
Trimeric HA Binding: RLU [18]: 16900 RLU
Trimeric HA Binding: RLU [19]: 1060 RLU
Trimeric HA Binding: RLU [20]: 22700 RLU
Trimeric HA Binding: RLU [21]: 6810 RLU
Trimeric HA Binding: RLU [22]: 16700 RLU
Trimeric HA Binding: RLU [23]: 18000 RLU
Trimeric HA Binding: RLU [24]: 28800 RLU
Trimeric HA Binding: RLU [25]: 24600 RLU
Trimeric HA Binding: RLU [26]: 25400 RLU
Trimeric HA Binding: RLU [27]: 25600 RLU

B3: TCN-527 (5086_C06) (antibody, V domains shown)
VH: QVQLQESGPGLVKPSETLSLNCAVSGGSISNYYWSWIRQPPGKGLEWIGYISYNGRPKYNPSLTSRVTISVDTSKDQFSLELRSVTAADTALYYCARETRFGELLSPYDAFEIWGQGTMVTVSS
VL: DIQMTQSPSSLSASVGDRVTMTCRASQNIRSYLNWYQQRPGTAPKLLIYAASTLHSGVPSRFSGGGSGTDFTLTINNLQPEDFASYYCQQSYDNPQTFGQGTKVEIK
Trimeric HA Binding: RLU [1]: 16500 RLU
Trimeric HA Binding: RLU [2]: 8890 RLU
Trimeric HA Binding: RLU [3]: 21400 RLU
Trimeric HA Binding: RLU [4]: 21300 RLU
Trimeric HA Binding: RLU [5]: 28000 RLU
Trimeric HA Binding: RLU [6]: 16000 RLU
Trimeric HA Binding: RLU [7]: 27000 RLU
Trimeric HA Binding: RLU [8]: 7690 RLU
Trimeric HA Binding: RLU [9]: 5720 RLU
Trimeric HA Binding: RLU [10]: 23800 RLU
Trimeric HA Binding: RLU [11]: 19300 RLU
Trimeric HA Binding: RLU [12]: 28800 RLU
Trimeric HA Binding: RLU [13]: 30300 RLU
Trimeric HA Binding: RLU [14]: 29600 RLU
Trimeric HA Binding: RLU [15]: 28600 RLU
Trimeric HA Binding: RLU [16]: 18700 RLU
Trimeric HA Binding: RLU [17]: 27000 RLU
Trimeric HA Binding: RLU [18]: 314 RLU
Trimeric HA Binding: RLU [19]: 600 RLU
Trimeric HA Binding: RLU [20]: 25200 RLU
Trimeric HA Binding: RLU [21]: 18600 RLU
Trimeric HA Binding: RLU [22]: 15200 RLU
Trimeric HA Binding: RLU [23]: 13200 RLU
Trimeric HA Binding: RLU [24]: 24700 RLU
Trimeric HA Binding: RLU [25]: 19800 RLU
Trimeric HA Binding: RLU [26]: 22900 RLU
Trimeric HA Binding: RLU [27]: 23900 RLU
